Measurements: the supplement of paper PMC10567573
± gives the standard deviation.

Assay: protein stability index of a GFP-peptide fusion (GPS, HEK-293T) (PSI 1-6); higher = more stable
[1] = treatment: DMSO, c terminus: a fixed tail appended
[2] = treatment: MLN4924 1 uM, 8 h, c terminus: a fixed tail appended
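Note: 24-mer peptide tiles fused after GFP, lentivirally expressed, FACS-sorted into six equal bins by GFP/DsRed ratio, decoded by Illumina sequencing, PSI is the read-weighted mean bin number.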

Sequence | protein stability index [1] | protein stability index [2] | protein stability index (treatment: DMSO, c terminus: native) | protein stability index (treatment: MLN4924 1 uM, 8 h, c terminus: native)
KGLKKVVHETPAASKTVFFFFSSP [BTBD1] | 2.29 ± 0.54 | 2.29 ± 0.26 | – | –
KGMVLDENYNNLANAVISVSGINH [CPN1] | 3.06 ± 0.086 | 3.02 ± 0.29 | – | –
KGYTPLHAAASNGQINVVKHLLNL [ANKRD44] | 2.67 ± 0.21 | 2.69 ± 0.25 | – | –
KHERTHEIIPINVNNNYEHRHTSH [SPRY1] | 3.68 ± 0.37 | 3.91 ± 0.34 | – | –
KHMFERSFTQGEGARPLSTRVPRA [MATN2] | 4.07 ± 0.18 | 3.85 ± 0.35 | – | –
KIFNDFKDRMKSDHKRETERVVRE [ZMYND11] | 4.12 ± 0.35 | 4.13 ± 0.081 | – | –
KIINTKKLSARDHQKLEREARICR [CAMK2B] | 3.45 ± 0.29 | 3.88 ± 0.24 | – | –
KILLDAQHESGQSSSRGSSHCDSP [BNIP3L] | 4.91 ± 0.18 | 4.83 ± 0.1 | – | –
KKEDCLKLLLFLSTELQASQILQN [FAM98B] | 3.41 ± 1.1 | – | – | –
KKQQELTAAVLGLICEGLYPASIV [ZBED1] | 2.97 ± 0.63 | 3.02 ± 0.58 | – | –
KLEPMETERSPGPRLQELLGPSPQ [ZNF263] | 4.43 ± 0.14 | 4.52 ± 0.17 | – | –
KLFESVECYDPRTQQWTAICPLKE [GAN] | 2.5 ± 0.38 | 2.82 ± 0.13 | – | –
KLGNLMSLDISGHMILENCSISKM [ZER1] | 2.1 ± 0.24 | 2.24 ± 0.24 | – | –
KLLDHDNVKYLKKILDELEKVLDQ [GDAP1] | 2.42 ± 0.56 | 2.32 ± 0.47 | – | –
KLLVVDRTRRLGNMKNGANDVKHH [PRKX] | 3.23 ± 0.46 | 3.48 ± 0.15 | – | –
KLRHDLKKTSITQQPSKHRTDEEL [PLK2] | 4.915 ± 0.039 | 5.1 ± 0.15 | – | –
KLSGFMSKLVPAIQNAHKNSTGSG [TPRG1] | 2.72 ± 0.2 | 3.03 ± 0.23 | – | –
KMPVYSGSRPACQLQVPTLRQQCA [ELOA2] | 3.23 ± 0.32 | 3.14 ± 0.15 | – | –
KNLKIWNVHTGEFRNCGACVTLMQ [WDR88] | 2.42 ± 0.86 | 2.35 ± 0.54 | – | –
KQAKVVARRESGGRPIKPPKKDLE [BRD3] | 5.08 ± 0.27 | 5.05 ± 0.24 | – | –
KQKVMTHVSNGCQLLLGVKGHAF [JUNB] | – | – | 2.16 ± 0.21 | 2.23 ± 0.21
KRESPGVGGGSGDEASAATPPSSR [ZBTB22] | 5.53 ± 0.23 | 5.451 ± 0.044 | – | –

Sequence | protein stability index [1] | protein stability index [2] | protein stability index (treatment: DMSO, c terminus: native) | protein stability index (treatment: MLN4924 1 uM, 8 h, c terminus: native)
KRKEEEALKDSLRPKLSEEQQRII [VDR] | 5.09 ± 0.26 | 5.06 ± 0.23 | – | –
KRKLDTILNLERDVEDLQRDKARL [NFE2L1] | 4.36 ± 0.25 | 4.46 ± 0.17 | – | –
KSCQACRLRKCYEVGMVKCGSRRE [ESR2] | 2.35 ± 0.43 | 3.1 ± 0.33 | – | –
KSDKALMMLFNDGTFQVNFYHDHT [PLK2] | 1.86 ± 0.32 | 2.25 ± 0.14 | – | –
KSEGQKIPKVELQISIYGVKILEP [GULP1] | 2.84 ± 1 | 2.3 ± 1.1 | – | –
KSNSYPHQLYTSSSHHSHSYIGLP [KMT2E] | 3.03 ± 0.17 | 3.24 ± 0.26 | – | –
KSWHDMQTTTAYKKTHETLSHAGQ [TPD52L1] | 4.01 ± 0.15 | 3.96 ± 0.18 | – | –
KSWLNGFRPKDQTSVGMSFVAGGI [SLC25A39] | 2.2 ± 0.18 | 2.43 ± 0.24 | – | –
KTEAEIAHIALETLEGHQRAIMAH [FLOT1] | 4.1 ± 0.12 | 4.06 ± 0.3 | – | –
KTLALARTMDIPRSVQNFRFFASS [ALDH8A1] | 2.58 ± 0.26 | 2.6 ± 0.3 | – | –
KTQICHTLAVTCQLPIDRGGGEGK [RAD51] | 3.81 ± 0.17 | 3.95 ± 0.42 | – | –
KVLEEGGFFEEKGAIFCPPCYDVR [PDLIM7] | 2.96 ± 0.29 | 2.92 ± 0.36 | – | –
KYAVPALEAHCVEFLTKHLRADNA [BTBD1] | 2.54 ± 0.25 | 2.74 ± 0.17 | – | –
KYDVKKVEEVVYDLSIRGFNKETA [TSN] | 3.57 ± 0.31 | 3.64 ± 0.23 | – | –
KYELMRPSNKAPLLVLCEDHRGRM [EHMT1] | 2.57 ± 0.28 | 2.78 ± 0.26 | – | –
KYPGPQAEGDSEGLSQGLVDREKG [CHGA] | 5.32 ± 0.3 | 5.36 ± 0.12 | – | –
LAAGSAVFDAMFNGGMATTSAEIE [BTBD1] | 3.72 ± 0.35 | 3.75 ± 0.29 | – | –
LAAKALLDQKKQDPRVQDFLQRCL [NET1] | 2.28 ± 0.31 | 2.42 ± 0.25 | – | –
LAFLDKIKSVKESLQESVEDSLAT [IQUB] | 4.03 ± 0.45 | 3.77 ± 0.69 | – | –
LALGPILRLYKHNSQALLLHSSIL [MFSD9] | 3.12 ± 0.78 | 2.59 ± 0.37 | – | –
LALLPAAWEDSHGSQDGHFVLSCS [SCNN1D] | 2.92 ± 0.083 | 2.9 ± 0.34 | – | –
LAPPPLPLPAAAVVHVSFPEVTSA [ZBTB22] | 3.3 ± 0.3 | 3.73 ± 0.55 | – | –

Sequence | protein stability index [1] | protein stability index [2] | protein stability index (treatment: DMSO, c terminus: native) | protein stability index (treatment: MLN4924 1 uM, 8 h, c terminus: native)
LAVAGGPRKTAAPVNALVSHLLVV [ESRRA] | 2.92 ± 0.61 | 2.85 ± 0.55 | – | –
LCSPGHERRGTPADTEEPTKDPDV [PSD2] | 5.66 ± 0.19 | 5.43 ± 0.26 | – | –
LDADAAQRVVYLEGCGPPLRRWLR [TSPAN10] | 2.69 ± 0.2 | 2.99 ± 0.14 | – | –
LDASGEKMNGSHRDQGSSALSGVG [IKZF1] | 4.97 ± 0.51 | 5.05 ± 0.3 | – | –
LDFLHSANFSLGSINQRLNKRERS [RNF180] | 3.69 ± 0.24 | 3.86 ± 0.4 | – | –
LDLSKPNDLWPTMENLLQATKSHV [DYNC2LI1] | 3.06 ± 0.28 | 3 ± 0.19 | – | –
LDYYKTGIIRCPDGISIPELREAC [BTBD10] | 2.42 ± 0.34 | 2.5 ± 0.38 | – | –
LEDGFYLTAFICFLVFILNAGLVW [MFSD9] | 3.23 ± 0.84 | 2.73 ± 0.95 | – | –
LEEDLKEVLRSEAGIELIIEDDIR [MYBL2] | 4.66 ± 0.35 | 4.68 ± 0.39 | – | –
LEFAYYFRPGHLLANACLPVRTTN [ZSWIM9] | 2.47 ± 0.67 | 2.25 ± 0.28 | – | –
LEGWRPDQLYRRKKDNHALVRETD [ELOA2] | 4.45 ± 0.16 | 4.57 ± 0.12 | – | –
LEIPVETITSEVIEKCTTPLSDDH [CRY1] | 4.8 ± 0.23 | 5.02 ± 0.3 | – | –
LELAQFHNAHQLAAWCLHHICTNY [RHOBTB1] | 2.7 ± 0.48 | 2.59 ± 0.43 | – | –
LEQMGALAVRGSRRERELERRELA [ZBED3] | 5 ± 0.37 | 4.76 ± 0.34 | – | –
LESLPTDPLLLILSFLDYRDLINC [FBXO3] | 2.84 ± 0.61 | 2.85 ± 0.64 | – | –
LETLPEFRDEKDYPASTSQDSFEA [KCNA3] | 5.38 ± 0.37 | 5.41 ± 0.2 | – | –
LEVINLLRKHRELCDVVLVVGAKK [KLHL20] | 2.37 ± 0.48 | 2.41 ± 0.34 | – | –
LEYLYTDSCCPAGIFQAMCLLICA [RHOBTB3] | 3.08 ± 0.45 | 3.19 ± 0.55 | – | –
LFEEPEDPSNRSFFSEIISSVSDV [PPP2R2C] | 4.24 ± 0.057 | 4.19 ± 0.19 | – | –
LFLKDVLGDEICCWSFYGQGRKIA [KCTD13] | 2.64 ± 0.42 | 2.07 ± 0.55 | – | –
LFSELAEDKENYKKFYEAFSKNLK [HSP90AB1] | 2.83 ± 0.23 | 3.62 ± 0.17 | – | –
